Assay results: publication PMC4405178 (Biochemistry, 2015)

Legend:
[1] = molecular target: Ste2p R58L, S95Y (Saccharomyces cerevisiae) (UniProt D6VTK4); assay: flow cytometry on cells
[2] = molecular target: Ste2p R58Q, S95Y (Saccharomyces cerevisiae) (UniProt D6VTK4); assay: flow cytometry on cells
Sequence of Ste2p R58Q, S95Y (Saccharomyces cerevisiae) (D6VTK4 1-303 R58Q/S95Y): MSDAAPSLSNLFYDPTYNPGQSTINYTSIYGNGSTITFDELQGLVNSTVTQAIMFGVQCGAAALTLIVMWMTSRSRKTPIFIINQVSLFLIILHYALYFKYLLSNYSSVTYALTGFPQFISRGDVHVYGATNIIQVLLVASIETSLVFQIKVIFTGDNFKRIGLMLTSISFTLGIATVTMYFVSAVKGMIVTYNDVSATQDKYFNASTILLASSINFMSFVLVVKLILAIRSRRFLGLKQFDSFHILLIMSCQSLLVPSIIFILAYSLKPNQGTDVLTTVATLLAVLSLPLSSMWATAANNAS

Sequence of Ste2p R58L, S95Y (Saccharomyces cerevisiae) (D6VTK4 1-303 R58L/S95Y): as the sequence (D6VTK4 1-303 R58Q/S95Y) above, with Q58L counted along it

- ligand binding at 300 nM ligand, % of wild-type levels (% of wild-type levels) [1]: 13.7
- ligand binding at 300 nM ligand, % of wild-type levels (% of wild-type levels) [2]: 16.8
Substance: [K^7(NBD),Nle^12] α-factor (peptide)
